{
  "source": "patent US20190241648A1",
  "about": "(STATEN BIOTECHNOLOGY B V, published 2019)",
  "assay_in_all_cases": "peptide microarray",
  "key": {"ApoC3 peptide … W65A": {"molecular_target": "ApoC3 peptide … W65A (human, cyclic constrained)", "outline": "(§1)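 ApoC3 peptide microarrays incubated with antibody samples and then stained with goat anti-human IgG (Fc) DyLight680 plus anti-HA DyLight800 control antibody. Scanned at intensity 7/7 (red/green); a secondary-only prestain checked for background, and framing HA peptides served as quality control.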"}, "ApoC3 peptide … F64C": {"molecular_target": "T1, ApoC3 peptide … F64C (human, not fully specified (bridges); also: cyclic constrained)", "T1 peptide": "DKFSECWDLDPEV", "outline": "as §1"}, "ApoC3 peptide … F64D": {"molecular_target": "T2, ApoC3 peptide … F64D (human, not fully specified (bridges); also: cyclic constrained)", "T2 peptide": "DKFSEDWDLDPEV", "outline": "as §1"}, "ApoC3 peptide … L67D": {"molecular_target": "T3, ApoC3 peptide … L67D (human, not fully specified (bridges); also: cyclic constrained)", "T3 peptide": "DKFSEFWDDDPEV", "outline": "as §1"}, "ApoC3 peptide … V71D": {"molecular_target": "ApoC3 peptide … V71D (human, cyclic constrained)", "outline": "as §1"}, "ApoC3 peptide … D66F": {"molecular_target": "T4, ApoC3 peptide … D66F (human, not fully specified (bridges); also: cyclic constrained)", "T4 peptide": "DKFSEFWFLDPEV", "outline": "as §1"}, "ApoC3 peptide … D68F": {"molecular_target": "T5, ApoC3 peptide … D68F (human, cyclic constrained)", "T5 peptide": "DKFSEFWDLFPEV", "outline": "as §1"}, "ApoC3 peptide … K60G": {"molecular_target": "T6, ApoC3 peptide … K60G (human, not fully specified (bridges); also: cyclic constrained)", "T6 peptide": "DGFSEFWDLDPEV", "outline": "as §1"}, "ApoC3 peptide … S62G": {"molecular_target": "ApoC3 peptide … S62G (human, cyclic constrained)", "outline": "as §1"}, "ApoC3 peptide … E70G": {"molecular_target": "T7, ApoC3 peptide … E70G (human, not fully specified (bridges); also: cyclic constrained)", "T7 peptide": "DKFSEFWDLDPGV", "outline": "as §1"}, "ApoC3 peptide … F64H": {"molecular_target": "T8, ApoC3 peptide … F64H (human, not fully specified (bridges); also: cyclic constrained)", "T8 peptide": "DKFSEHWDLDPEV", "outline": "as §1"}, "ApoC3 peptide … V71H": {"molecular_target": "ApoC3 peptide … V71H (human, cyclic constrained)", "outline": "as §1"}, "ApoC3 peptide … P69I": {"molecular_target": "T9, ApoC3 peptide … P69I (human, not fully specified (bridges); also: cyclic constrained)", "T9 peptide": "DKFSEFWDLDIEV", "outline": "as §1"}, "ApoC3 peptide … F61K": {"molecular_target": "T10, ApoC3 peptide … F61K (human, not fully specified (bridges); also: cyclic constrained)", "T10 peptide": "DKKSEFWDLDPEV", "outline": "as §1"}, "ApoC3 peptide … W65K": {"molecular_target": "T11, ApoC3 peptide … W65K (human, not fully specified (bridges); also: cyclic constrained, ring type and places not given here)", "T11 peptide": "DKFSEFKDLDPEV", "outline": "as §1"}, "ApoC3 peptide … E70K": {"molecular_target": "T12, ApoC3 peptide … E70K (human, not fully specified (bridges); also: cyclic constrained)", "T12 peptide": "DKFSEFWDLDPKV", "outline": "as §1"}, "ApoC3 peptide … P69L": {"molecular_target": "T13, ApoC3 peptide … P69L (human, not fully specified (bridges); also: cyclic constrained)", "T13 peptide": "DKFSEFWDLDLEV", "outline": "as §1"}, "ApoC3 peptide … D59N": {"molecular_target": "T14, ApoC3 peptide … D59N (human, cyclic constrained)", "T14 peptide": "NKFSEFWDLDPEV", "outline": "as §1"}, "ApoC3 peptide … D66N": {"molecular_target": "T15, ApoC3 peptide … D66N (human, not fully specified (bridges); also: cyclic constrained)", "T15 peptide": "DKFSEFWNLDPEV", "outline": "as §1"}, "ApoC3 peptide … P69N": {"molecular_target": "ApoC3 peptide … P69N (human, cyclic constrained)", "outline": "as §1"}, "ApoC3 peptide … K60P": {"molecular_target": "T16, ApoC3 peptide … K60P (human, not fully specified (bridges); also: cyclic constrained)", "T16 peptide": "DPFSEFWDLDPEV", "outline": "as §1"}, "ApoC3 peptide … F61P": {"molecular_target": "T17, ApoC3 peptide … F61P (human, not fully specified (bridges); also: cyclic constrained)", "T17 peptide": "DKPSEFWDLDPEV", "outline": "as §1"}, "ApoC3 peptide … S62P": {"molecular_target": "ApoC3 peptide … S62P (human, cyclic constrained)", "outline": "as §1"}, "ApoC3 peptide … W65P": {"molecular_target": "T18, ApoC3 peptide … W65P (human, not fully specified (bridges); also: cyclic constrained, ring type and places not given here)", "T18 peptide": "DKFSEFPDLDPEV", "outline": "as §1"}, "ApoC3 peptide … L67P": {"molecular_target": "T19, ApoC3 peptide … L67P (human, not fully specified (bridges); also: cyclic constrained)", "T19 peptide": "DKFSEFWDPDPEV", "outline": "as §1"}, "ApoC3 peptide … D68P": {"molecular_target": "T20, ApoC3 peptide … D68P (human, cyclic constrained)", "T20 peptide": "DKFSEFWDLPPEV", "outline": "as §1"}, "ApoC3 peptide … S62R": {"molecular_target": "ApoC3 peptide … S62R (human, cyclic constrained)", "outline": "as §1"}, "ApoC3 peptide … E70R": {"molecular_target": "T21, ApoC3 peptide … E70R (human, not fully specified (bridges); also: cyclic constrained)", "T21 peptide": "DKFSEFWDLDPRV", "outline": "as §1"}, "ApoC3 peptide … F61S": {"molecular_target": "T22, ApoC3 peptide … F61S (human, not fully specified (bridges); also: cyclic constrained)", "T22 peptide": "DKSSEFWDLDPEV", "outline": "as §1"}, "ApoC3 peptide … D66S": {"molecular_target": "T23, ApoC3 peptide … D66S (human, not fully specified (bridges); also: cyclic constrained)", "T23 peptide": "DKFSEFWSLDPEV", "outline": "as §1"}, "ApoC3 peptide … K60V": {"molecular_target": "T24, ApoC3 peptide … K60V (human, not fully specified (bridges); also: cyclic constrained)", "T24 peptide": "DVFSEFWDLDPEV", "outline": "as §1"}, "ApoC3 peptide … E70V": {"molecular_target": "T25, ApoC3 peptide … E70V (human, cyclic constrained)", "T25 peptide": "DKFSEFWDLDPVV", "outline": "as §1"}, "ApoC3 peptide … D66W": {"molecular_target": "T26, ApoC3 peptide … D66W (human, not fully specified (bridges); also: cyclic constrained)", "T26 peptide": "DKFSEFWWLDPEV", "outline": "as §1"}, "ApoC3 peptide … L67W": {"molecular_target": "T27, ApoC3 peptide … L67W (human, not fully specified (bridges); also: cyclic constrained)", "T27 peptide": "DKFSEFWDWDPEV", "outline": "as §1"}, "ApoC3 peptide … D68W": {"molecular_target": "ApoC3 peptide … D68W (human, cyclic constrained)", "outline": "as §1"}, "ApoC3 peptide … D59Y": {"molecular_target": "T28, ApoC3 peptide … D59Y (human, not fully specified (bridges); also: cyclic constrained)", "T28 peptide": "YKFSEFWDLDPEV", "outline": "as §1"}},
  "note": "Ends that are not written are not given here.",
  "data": [
    {"binder": "anti-ApoC3 antibody 6A6 (antibody, V domains shown, it was detected with goat anti-human IgG (Fc); also called mAb 6A6; llama antibody 6A6) VH: EVQLVESGGGLVQPGGSLRLSCAASGFTFSSYAGRWVRQVPGKGLEWVSSINAGGGSTSYADSVKGRFTISRDNAKNTLYLQMNSLKPEDTAKYYCTQNSYRYWGQGTRVAVSS VL: DVVLTQTPGSLSVVPGESASISCKASQSLIHTDGKTYLYWLLQKPGQRPQLLIYQVSSHESGVPDRFTGSGSGTDFTLKISGVKAEDAGVYYCAQATYNPRTFGQGTKLEIK", "values": [
      {"measurement": "% of binding to wild-type peptide", "setting": "ApoC3 peptide … W65A", "value": 26.4, "unit": "%"},
      {"measurement": "% of binding to wild-type peptide", "setting": "ApoC3 peptide … F64C", "value": 76.4, "unit": "%"},
      {"measurement": "% of binding to wild-type peptide", "setting": "ApoC3 peptide … F64D", "value": 220, "unit": "%"},
      {"measurement": "% of binding to wild-type peptide", "setting": "ApoC3 peptide … L67D", "value": 2.89, "unit": "%"},
      {"measurement": "% of binding to wild-type peptide", "setting": "ApoC3 peptide … V71D", "value": 223, "unit": "%"},
      {"measurement": "% of binding to wild-type peptide", "setting": "ApoC3 peptide … D66F", "value": 7.27, "unit": "%"},
      {"measurement": "% of binding to wild-type peptide", "setting": "ApoC3 peptide … D68F", "value": 0, "unit": "%"},
      {"measurement": "% of binding to wild-type peptide", "setting": "ApoC3 peptide … K60G", "value": 117, "unit": "%"},
      {"measurement": "% of binding to wild-type peptide", "setting": "ApoC3 peptide … S62G", "value": 53.9, "unit": "%"},
      {"measurement": "% of binding to wild-type peptide", "setting": "ApoC3 peptide … E70G", "value": 1.26, "unit": "%"},
      {"measurement": "% of binding to wild-type peptide", "setting": "ApoC3 peptide … F64H", "value": 107, "unit": "%"},
      {"measurement": "% of binding to wild-type peptide", "setting": "ApoC3 peptide … V71H", "value": 75.9, "unit": "%"},
      {"measurement": "% of binding to wild-type peptide", "setting": "ApoC3 peptide … P69I", "value": 81.9, "unit": "%"},
      {"measurement": "% of binding to wild-type peptide", "setting": "ApoC3 peptide … F61K", "value": 37.2, "unit": "%"},
      {"measurement": "% of binding to wild-type peptide", "setting": "ApoC3 peptide … W65K", "value": 0, "unit": "%"},
      {"measurement": "% of binding to wild-type peptide", "setting": "ApoC3 peptide … E70K", "value": 0, "unit": "%"},
      {"measurement": "% of binding to wild-type peptide", "setting": "ApoC3 peptide … P69L", "value": 36.8, "unit": "%"},
      {"measurement": "% of binding to wild-type peptide", "setting": "ApoC3 peptide … D59N", "value": 77.5, "unit": "%"},
      {"measurement": "% of binding to wild-type peptide", "setting": "ApoC3 peptide … D66N", "value": 0, "unit": "%"},
      {"measurement": "% of binding to wild-type peptide", "setting": "ApoC3 peptide … P69N", "value": 32.7, "unit": "%"},
      {"measurement": "% of binding to wild-type peptide", "setting": "ApoC3 peptide … K60P", "value": 157, "unit": "%"},
      {"measurement": "% of binding to wild-type peptide", "setting": "ApoC3 peptide … F61P", "value": 79, "unit": "%"},
      {"measurement": "% of binding to wild-type peptide", "setting": "ApoC3 peptide … S62P", "value": 27.1, "unit": "%"},
      {"measurement": "% of binding to wild-type peptide", "setting": "ApoC3 peptide … W65P", "value": 13.8, "unit": "%"},
      {"measurement": "% of binding to wild-type peptide", "setting": "ApoC3 peptide … L67P", "value": 0, "unit": "%"},
      {"measurement": "% of binding to wild-type peptide", "setting": "ApoC3 peptide … D68P", "value": 0, "unit": "%"},
      {"measurement": "% of binding to wild-type peptide", "setting": "ApoC3 peptide … S62R", "value": 37.2, "unit": "%"},
      {"measurement": "% of binding to wild-type peptide", "setting": "ApoC3 peptide … E70R", "value": 0, "unit": "%"},
      {"measurement": "% of binding to wild-type peptide", "setting": "ApoC3 peptide … F61S", "value": 39.2, "unit": "%"},
      {"measurement": "% of binding to wild-type peptide", "setting": "ApoC3 peptide … D66S", "value": 0, "unit": "%"},
      {"measurement": "% of binding to wild-type peptide", "setting": "ApoC3 peptide … K60V", "value": 106, "unit": "%"},
      {"measurement": "% of binding to wild-type peptide", "setting": "ApoC3 peptide … E70V", "value": 0.27, "unit": "%"},
      {"measurement": "% of binding to wild-type peptide", "setting": "ApoC3 peptide … D66W", "value": 0, "unit": "%"},
      {"measurement": "% of binding to wild-type peptide", "setting": "ApoC3 peptide … L67W", "value": 1.26, "unit": "%"},
      {"measurement": "% of binding to wild-type peptide", "setting": "ApoC3 peptide … D68W", "value": 0, "unit": "%"},
      {"measurement": "% of binding to wild-type peptide", "setting": "ApoC3 peptide … D59Y", "value": 70.2, "unit": "%"}
    ]}
  ]
}
